Reference: the supplement of paper PMC10065799, “High-throughput profiling of sequence recognition by tyrosine kinases and SH2 domains using bacterial peptide display” (eLife, 2023)
Values belong to the sequence of their own block, whether it stands above or below them.

What was measured:
SHP2-C SH2 = assay: SH2 binding enrichment of the phosphorylated peptide, bacterial display (enrichment ratio); higher = better substrate or ligand; peptides without Tyr show the background
Grb2 SH2 = Grb2 SH2 (UniProt P62993); assay: as above
c-Src SH2 = assay: as above
EPHB1 = EPHB1 (UniProt P54762); assay: phosphorylation enrichment, bacterial display (enrichment ratio); higher = better substrate or ligand; peptides without Tyr show the background
c-Src = assay: as above
EPHB2 = EPHB2 (UniProt P29323); assay: as above
Jak2 = Jak2 (UniProt O60674); assay: as above
AncSZ = assay: as above
FGFR1 = FGFR1 (UniProt P11362); assay: as above
FGFR3 = FGFR3 (UniProt P22607); assay: as above
Fyn = Fyn (UniProt P06241); assay: as above
Fer (mouse) = assay: as above
Hck = Hck (UniProt P08631); assay: as above
c-Abl (mouse) = assay: as above
Fes = Fes (UniProt P07332); assay: as above
MERTK = MERTK (UniProt Q12866); assay: as above
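For SH2 binding enrichment of the phosphorylated peptide, bacterial display in this document: peptide library displayed on the E. coli surface as eCPX fusions, selected cells deep-sequenced, score is each peptide's frequency after selection divided by its frequency in the input.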
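For phosphorylation enrichment, bacterial display in this document: 11-residue human phosphosite peptides and single-mutation variants displayed on the E. coli surface, counted by deep sequencing, each peptide's frequency after selection divided by its frequency in the unselected input library; frequency after pTyr selection over input frequency; kinase dosed for 20-30% of maximal phosphorylation in three min.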

Sequence of FGFR1 (P11362 whole entry, looked up): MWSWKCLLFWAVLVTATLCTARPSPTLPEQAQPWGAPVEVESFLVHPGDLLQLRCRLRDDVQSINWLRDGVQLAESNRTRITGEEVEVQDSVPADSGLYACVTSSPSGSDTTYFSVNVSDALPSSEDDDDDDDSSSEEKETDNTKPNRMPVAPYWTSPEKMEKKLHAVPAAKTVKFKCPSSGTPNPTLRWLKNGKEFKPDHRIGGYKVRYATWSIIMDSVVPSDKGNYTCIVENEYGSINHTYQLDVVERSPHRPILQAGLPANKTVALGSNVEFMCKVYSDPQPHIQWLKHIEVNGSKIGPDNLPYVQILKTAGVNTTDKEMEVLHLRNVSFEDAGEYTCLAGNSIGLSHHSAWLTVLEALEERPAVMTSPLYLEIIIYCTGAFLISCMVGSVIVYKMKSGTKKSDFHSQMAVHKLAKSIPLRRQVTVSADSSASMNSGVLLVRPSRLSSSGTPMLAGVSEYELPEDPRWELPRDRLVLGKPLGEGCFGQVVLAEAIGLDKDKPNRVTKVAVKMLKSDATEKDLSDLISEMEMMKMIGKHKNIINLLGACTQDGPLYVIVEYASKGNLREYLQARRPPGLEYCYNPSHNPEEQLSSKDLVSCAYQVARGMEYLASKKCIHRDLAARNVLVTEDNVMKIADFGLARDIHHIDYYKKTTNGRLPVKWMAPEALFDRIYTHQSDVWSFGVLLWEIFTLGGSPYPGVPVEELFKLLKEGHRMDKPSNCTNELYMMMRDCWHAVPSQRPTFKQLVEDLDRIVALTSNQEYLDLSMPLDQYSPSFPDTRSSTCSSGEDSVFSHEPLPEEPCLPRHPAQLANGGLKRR
Sequence of FGFR3 (P22607 whole entry, looked up): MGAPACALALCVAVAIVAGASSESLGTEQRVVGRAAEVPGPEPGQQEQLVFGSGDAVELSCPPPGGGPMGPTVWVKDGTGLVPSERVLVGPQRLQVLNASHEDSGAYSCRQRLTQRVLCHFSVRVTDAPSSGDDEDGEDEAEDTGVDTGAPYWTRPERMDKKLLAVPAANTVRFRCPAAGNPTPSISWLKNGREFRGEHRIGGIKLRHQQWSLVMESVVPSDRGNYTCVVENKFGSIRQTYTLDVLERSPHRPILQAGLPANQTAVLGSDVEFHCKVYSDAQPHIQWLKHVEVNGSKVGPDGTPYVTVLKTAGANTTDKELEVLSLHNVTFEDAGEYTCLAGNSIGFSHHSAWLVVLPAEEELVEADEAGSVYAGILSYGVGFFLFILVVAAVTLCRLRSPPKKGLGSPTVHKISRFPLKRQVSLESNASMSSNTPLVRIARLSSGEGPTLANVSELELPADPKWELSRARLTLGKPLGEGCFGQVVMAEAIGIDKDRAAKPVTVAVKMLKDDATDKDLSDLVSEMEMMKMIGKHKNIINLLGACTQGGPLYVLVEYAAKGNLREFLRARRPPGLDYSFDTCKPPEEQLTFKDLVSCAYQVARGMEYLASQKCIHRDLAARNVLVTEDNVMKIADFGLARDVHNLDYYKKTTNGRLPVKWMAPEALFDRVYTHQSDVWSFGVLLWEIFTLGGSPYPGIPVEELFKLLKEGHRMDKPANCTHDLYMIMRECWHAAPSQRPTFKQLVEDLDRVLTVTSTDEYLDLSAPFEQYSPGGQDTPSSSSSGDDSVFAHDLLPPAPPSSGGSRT
Sequence of Fes (P07332 whole entry, looked up): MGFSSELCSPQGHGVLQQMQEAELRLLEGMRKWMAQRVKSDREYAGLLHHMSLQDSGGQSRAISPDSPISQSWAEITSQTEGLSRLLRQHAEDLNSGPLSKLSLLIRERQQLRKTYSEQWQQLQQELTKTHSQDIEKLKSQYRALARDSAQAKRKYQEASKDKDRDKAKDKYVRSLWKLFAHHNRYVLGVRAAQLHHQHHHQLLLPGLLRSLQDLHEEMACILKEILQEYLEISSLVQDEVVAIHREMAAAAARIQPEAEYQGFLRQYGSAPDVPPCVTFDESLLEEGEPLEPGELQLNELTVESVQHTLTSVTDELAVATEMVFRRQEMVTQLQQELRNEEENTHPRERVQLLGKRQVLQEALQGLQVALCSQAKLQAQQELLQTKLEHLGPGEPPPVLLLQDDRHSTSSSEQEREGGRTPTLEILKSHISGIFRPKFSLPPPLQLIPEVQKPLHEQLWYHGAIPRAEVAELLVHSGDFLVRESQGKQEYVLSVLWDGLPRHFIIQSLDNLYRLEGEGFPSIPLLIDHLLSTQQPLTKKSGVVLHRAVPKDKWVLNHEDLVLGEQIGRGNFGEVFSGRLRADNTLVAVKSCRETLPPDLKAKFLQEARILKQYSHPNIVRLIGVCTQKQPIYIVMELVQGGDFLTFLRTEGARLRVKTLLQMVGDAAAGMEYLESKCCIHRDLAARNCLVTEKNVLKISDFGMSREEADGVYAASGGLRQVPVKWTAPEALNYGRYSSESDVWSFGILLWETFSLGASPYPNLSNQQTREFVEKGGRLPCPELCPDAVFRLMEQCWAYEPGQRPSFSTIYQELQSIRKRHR
Sequence of MERTK (Q12866 whole entry, looked up, the tested form may be a part): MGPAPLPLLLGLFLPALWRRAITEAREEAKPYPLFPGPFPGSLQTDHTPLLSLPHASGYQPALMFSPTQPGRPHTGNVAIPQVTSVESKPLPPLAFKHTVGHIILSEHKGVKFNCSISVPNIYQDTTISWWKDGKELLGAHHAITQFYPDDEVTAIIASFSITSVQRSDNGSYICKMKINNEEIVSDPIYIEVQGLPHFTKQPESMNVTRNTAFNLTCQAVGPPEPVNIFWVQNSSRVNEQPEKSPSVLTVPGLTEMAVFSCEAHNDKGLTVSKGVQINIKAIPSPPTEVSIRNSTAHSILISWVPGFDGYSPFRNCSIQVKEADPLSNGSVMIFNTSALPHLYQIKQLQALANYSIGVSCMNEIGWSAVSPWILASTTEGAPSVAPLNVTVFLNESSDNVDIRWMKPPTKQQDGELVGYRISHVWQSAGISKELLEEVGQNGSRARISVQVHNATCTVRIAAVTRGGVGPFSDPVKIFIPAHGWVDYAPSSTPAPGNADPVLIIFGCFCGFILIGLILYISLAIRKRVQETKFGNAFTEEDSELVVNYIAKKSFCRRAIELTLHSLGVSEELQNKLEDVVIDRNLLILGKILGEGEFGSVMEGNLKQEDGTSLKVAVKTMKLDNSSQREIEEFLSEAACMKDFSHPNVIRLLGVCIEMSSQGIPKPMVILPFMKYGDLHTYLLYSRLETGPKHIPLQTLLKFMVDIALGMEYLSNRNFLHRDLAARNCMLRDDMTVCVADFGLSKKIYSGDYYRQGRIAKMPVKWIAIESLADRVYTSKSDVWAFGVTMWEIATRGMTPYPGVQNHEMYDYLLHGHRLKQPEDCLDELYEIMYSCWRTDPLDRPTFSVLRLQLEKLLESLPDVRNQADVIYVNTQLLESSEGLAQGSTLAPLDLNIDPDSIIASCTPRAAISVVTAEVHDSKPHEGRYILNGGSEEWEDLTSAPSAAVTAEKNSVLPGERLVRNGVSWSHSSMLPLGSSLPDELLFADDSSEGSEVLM
Sequence of Jak2 (O60674 whole entry, looked up): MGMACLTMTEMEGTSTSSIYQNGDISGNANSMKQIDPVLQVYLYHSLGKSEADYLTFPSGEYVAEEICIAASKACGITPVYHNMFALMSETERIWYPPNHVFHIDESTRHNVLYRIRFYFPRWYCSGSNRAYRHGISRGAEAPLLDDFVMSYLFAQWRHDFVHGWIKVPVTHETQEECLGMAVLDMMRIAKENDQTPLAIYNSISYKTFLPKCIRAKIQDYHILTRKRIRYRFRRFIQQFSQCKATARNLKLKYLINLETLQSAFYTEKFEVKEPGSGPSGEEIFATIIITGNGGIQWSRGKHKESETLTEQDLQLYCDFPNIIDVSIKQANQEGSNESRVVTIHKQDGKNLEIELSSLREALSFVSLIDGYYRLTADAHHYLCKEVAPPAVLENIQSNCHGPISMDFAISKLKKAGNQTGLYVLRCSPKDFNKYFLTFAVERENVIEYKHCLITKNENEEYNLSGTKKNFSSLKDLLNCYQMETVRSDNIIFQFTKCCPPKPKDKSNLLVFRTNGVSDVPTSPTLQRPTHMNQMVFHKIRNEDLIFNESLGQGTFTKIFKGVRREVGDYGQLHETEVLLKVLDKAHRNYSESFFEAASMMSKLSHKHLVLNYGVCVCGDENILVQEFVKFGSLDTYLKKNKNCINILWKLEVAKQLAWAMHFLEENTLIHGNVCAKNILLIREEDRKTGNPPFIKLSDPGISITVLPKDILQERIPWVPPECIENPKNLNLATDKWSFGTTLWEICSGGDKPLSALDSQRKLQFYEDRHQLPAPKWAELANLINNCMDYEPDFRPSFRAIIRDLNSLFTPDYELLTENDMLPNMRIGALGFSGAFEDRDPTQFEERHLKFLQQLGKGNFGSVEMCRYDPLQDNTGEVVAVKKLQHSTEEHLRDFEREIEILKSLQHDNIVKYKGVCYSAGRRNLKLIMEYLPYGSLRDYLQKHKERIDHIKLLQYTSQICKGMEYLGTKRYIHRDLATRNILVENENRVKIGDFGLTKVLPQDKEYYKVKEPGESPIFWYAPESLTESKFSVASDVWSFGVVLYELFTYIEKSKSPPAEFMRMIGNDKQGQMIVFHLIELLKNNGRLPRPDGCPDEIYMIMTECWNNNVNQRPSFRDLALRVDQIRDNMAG

Sequence: GVTLLCYGRYN [ADGRD1_Y85_Y85C]
SH2 binding enrichment (SHP2-C SH2): 0.806
SH2 binding enrichment (Grb2 SH2): 0.753
SH2 binding enrichment (c-Src SH2): 0.486
phosphorylation enrichment (EPHB1): 0.707
phosphorylation enrichment (c-Src): 0.97
phosphorylation enrichment (EPHB2): 0.682
phosphorylation enrichment (Jak2): 1.23
phosphorylation enrichment (AncSZ): 1.31
phosphorylation enrichment (FGFR1): 0.435
phosphorylation enrichment (FGFR3): 0.908
phosphorylation enrichment (Fyn): 0.708
phosphorylation enrichment (Fer (mouse)): 0.563
phosphorylation enrichment (Hck): 0.508
phosphorylation enrichment (c-Abl (mouse)): 0.975
phosphorylation enrichment (Fes): 1.55
phosphorylation enrichment (MERTK): 0.397

Sequence: HCFAAYFQQGD [GPI_Y351_R347C]
SH2 binding enrichment (SHP2-C SH2): 0.929
SH2 binding enrichment (Grb2 SH2): 0.984
SH2 binding enrichment (c-Src SH2): 0.673
phosphorylation enrichment (EPHB1): 1.05
phosphorylation enrichment (c-Src): 1.23
phosphorylation enrichment (EPHB2): 0.906
phosphorylation enrichment (Jak2): 2.05
phosphorylation enrichment (AncSZ): 1.72
phosphorylation enrichment (FGFR1): 0.914
phosphorylation enrichment (FGFR3): 1.28
phosphorylation enrichment (Fyn): 0.755
phosphorylation enrichment (Fer (mouse)): 1.08
phosphorylation enrichment (Hck): 0.748
phosphorylation enrichment (c-Abl (mouse)): 1.98
phosphorylation enrichment (Fes): 2.51
phosphorylation enrichment (MERTK): 1.03

Sequence: HKLSSYEFDFE [BTK_Y40_Y39S_YF]
SH2 binding enrichment (SHP2-C SH2): 0.719
SH2 binding enrichment (Grb2 SH2): 0.974
SH2 binding enrichment (c-Src SH2): 3
phosphorylation enrichment (EPHB1): 0.902
phosphorylation enrichment (c-Src): 1.09
phosphorylation enrichment (EPHB2): 0.75
phosphorylation enrichment (Jak2): 2.13
phosphorylation enrichment (AncSZ): 1.83
phosphorylation enrichment (FGFR1): 0.889
phosphorylation enrichment (FGFR3): 0.844
phosphorylation enrichment (Fyn): 0.777
phosphorylation enrichment (Fer (mouse)): 0.664
phosphorylation enrichment (Hck): 0.565
phosphorylation enrichment (c-Abl (mouse)): 1.43
phosphorylation enrichment (Fes): 1.51
phosphorylation enrichment (MERTK): 0.865

Sequence: HLEKKYVRRDS [CSF1R_Y708]
SH2 binding enrichment (SHP2-C SH2): 1.25
SH2 binding enrichment (Grb2 SH2): 1.02
SH2 binding enrichment (c-Src SH2): 0.876
phosphorylation enrichment (EPHB1): 1.61
phosphorylation enrichment (c-Src): 4.16
phosphorylation enrichment (EPHB2): 2.23
phosphorylation enrichment (Jak2): 6.5
phosphorylation enrichment (AncSZ): 2.92
phosphorylation enrichment (FGFR1): 2.42
phosphorylation enrichment (FGFR3): 0.997
phosphorylation enrichment (Fyn): 1.64
phosphorylation enrichment (Fer (mouse)): 1.67
phosphorylation enrichment (Hck): 1.23
phosphorylation enrichment (c-Abl (mouse)): 2.1
phosphorylation enrichment (Fes): 4.2
phosphorylation enrichment (MERTK): 6.59

Now from value to sequence, other results behind:

SH2 binding enrichment (SHP2-C SH2): 0.715
SH2 binding enrichment (Grb2 SH2): 0.655
SH2 binding enrichment (c-Src SH2): 0.502
Sequence: GYCSWYRGWAP [TIMP3_Y195]
phosphorylation enrichment (EPHB1): 0.8
phosphorylation enrichment (c-Src): 1.33
phosphorylation enrichment (EPHB2): 0.712
phosphorylation enrichment (Jak2): 1.32
phosphorylation enrichment (AncSZ): 1.38
phosphorylation enrichment (FGFR1): 0.807
phosphorylation enrichment (FGFR3): 1
phosphorylation enrichment (Fyn): 0.671
phosphorylation enrichment (Fer (mouse)): 0.691
phosphorylation enrichment (Hck): 1.25
phosphorylation enrichment (c-Abl (mouse)): 1.04
phosphorylation enrichment (Fes): 1.53
phosphorylation enrichment (MERTK): 0.975

SH2 binding enrichment (SHP2-C SH2): 0.702
SH2 binding enrichment (Grb2 SH2): 0.657
SH2 binding enrichment (c-Src SH2): 0.52
Sequence: GYQPDYGQPAG [SYP_Y278]
phosphorylation enrichment (EPHB1): 0.442
phosphorylation enrichment (c-Src): 0.342
phosphorylation enrichment (EPHB2): 0.378
phosphorylation enrichment (Jak2): 0.564
phosphorylation enrichment (AncSZ): 0.701
phosphorylation enrichment (FGFR1): 0.465
phosphorylation enrichment (FGFR3): 0.551
phosphorylation enrichment (Fyn): 0.384
phosphorylation enrichment (Fer (mouse)): 0.38
phosphorylation enrichment (Hck): 0.409
phosphorylation enrichment (c-Abl (mouse)): 0.556
phosphorylation enrichment (Fes): 0.671
phosphorylation enrichment (MERTK): 0.334

SH2 binding enrichment (SHP2-C SH2): 0.553
SH2 binding enrichment (Grb2 SH2): 0.801
SH2 binding enrichment (c-Src SH2): 0.495
Sequence: GYQPEYGQPAG [SYP_Y278_D277E]
phosphorylation enrichment (EPHB1): 0.451
phosphorylation enrichment (c-Src): 0.443
phosphorylation enrichment (EPHB2): 0.451
phosphorylation enrichment (Jak2): 0.725
phosphorylation enrichment (AncSZ): 0.662
phosphorylation enrichment (FGFR1): 0.401
phosphorylation enrichment (FGFR3): 0.659
phosphorylation enrichment (Fyn): 0.426
phosphorylation enrichment (Fer (mouse)): 0.487
phosphorylation enrichment (Hck): 0.419
phosphorylation enrichment (c-Abl (mouse)): 0.466
phosphorylation enrichment (Fes): 0.851
phosphorylation enrichment (MERTK): 0.467

SH2 binding enrichment (SHP2-C SH2): 0.963
SH2 binding enrichment (Grb2 SH2): 0.868
SH2 binding enrichment (c-Src SH2): 0.565
Sequence: HFGCVYRGTLL [MET_Y1093_H1094R]
phosphorylation enrichment (EPHB1): 1.04
phosphorylation enrichment (c-Src): 1.97
phosphorylation enrichment (EPHB2): 0.87
phosphorylation enrichment (Jak2): 1.77
phosphorylation enrichment (AncSZ): 1.44
phosphorylation enrichment (FGFR1): 0.884
phosphorylation enrichment (FGFR3): 1.06
phosphorylation enrichment (Fyn): 0.862
phosphorylation enrichment (Fer (mouse)): 0.702
phosphorylation enrichment (Hck): 0.607
phosphorylation enrichment (c-Abl (mouse)): 1.28
phosphorylation enrichment (Fes): 1.66
phosphorylation enrichment (MERTK): 0.573
